# T1: Murine CTGF (Mus musculus, UniProt P29268)
# T1 construct: purchased Abbexa
# T1 sequence (P29268 26-348): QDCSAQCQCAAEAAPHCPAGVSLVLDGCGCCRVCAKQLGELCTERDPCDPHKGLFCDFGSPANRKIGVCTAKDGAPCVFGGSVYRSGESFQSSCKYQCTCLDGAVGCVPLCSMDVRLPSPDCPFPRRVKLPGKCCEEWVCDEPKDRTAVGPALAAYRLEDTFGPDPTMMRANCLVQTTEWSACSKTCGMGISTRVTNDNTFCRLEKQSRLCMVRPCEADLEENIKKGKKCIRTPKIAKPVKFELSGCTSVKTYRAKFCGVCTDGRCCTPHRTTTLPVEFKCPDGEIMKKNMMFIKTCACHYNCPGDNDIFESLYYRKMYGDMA
# T2: Rat CTGF (Rattus norvegicus, UniProt Q9R1E9)
# T2 construct: purchased R&D Systems
# T2 sequence (Q9R1E9 25-347): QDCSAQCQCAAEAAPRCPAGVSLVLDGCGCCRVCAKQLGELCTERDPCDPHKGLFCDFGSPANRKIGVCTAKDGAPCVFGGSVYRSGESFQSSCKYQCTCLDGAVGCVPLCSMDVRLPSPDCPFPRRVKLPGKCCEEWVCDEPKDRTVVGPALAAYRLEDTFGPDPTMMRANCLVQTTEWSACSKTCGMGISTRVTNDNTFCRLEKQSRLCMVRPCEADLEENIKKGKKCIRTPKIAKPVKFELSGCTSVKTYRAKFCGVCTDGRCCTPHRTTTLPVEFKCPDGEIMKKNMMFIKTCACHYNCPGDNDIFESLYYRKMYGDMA
# Assays:
# [1] = Thermal stability assessment by nanoDSC; assay type: physicochemical; conditions: 1 mg/mL in PBS, scan 25-100° C. at 1° C./min; for TM: major transition
# In short: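 CTGF-specific lipocalin muteins at 1 mg/mL in PBS scanned from 25 to 100° C at 1° C/min by capillary nano-DSC. Where several transitions occur, the Tm of the major unfolding event is reported, along with onset temperature. Some muteins were expressed in E. coli, others in CHO cells.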
# human CTGF [2] = molecular target: T3, human CTGF (Homo sapiens, UniProt P29279); assay: SPR binding kinetics and affinity, human CTGF; conditions: 25° C., 1:1 binding model
# T3 construct: purchased Creative Biomart
# T3 sequence (P29279 with tags, fused parts or gaps H83D): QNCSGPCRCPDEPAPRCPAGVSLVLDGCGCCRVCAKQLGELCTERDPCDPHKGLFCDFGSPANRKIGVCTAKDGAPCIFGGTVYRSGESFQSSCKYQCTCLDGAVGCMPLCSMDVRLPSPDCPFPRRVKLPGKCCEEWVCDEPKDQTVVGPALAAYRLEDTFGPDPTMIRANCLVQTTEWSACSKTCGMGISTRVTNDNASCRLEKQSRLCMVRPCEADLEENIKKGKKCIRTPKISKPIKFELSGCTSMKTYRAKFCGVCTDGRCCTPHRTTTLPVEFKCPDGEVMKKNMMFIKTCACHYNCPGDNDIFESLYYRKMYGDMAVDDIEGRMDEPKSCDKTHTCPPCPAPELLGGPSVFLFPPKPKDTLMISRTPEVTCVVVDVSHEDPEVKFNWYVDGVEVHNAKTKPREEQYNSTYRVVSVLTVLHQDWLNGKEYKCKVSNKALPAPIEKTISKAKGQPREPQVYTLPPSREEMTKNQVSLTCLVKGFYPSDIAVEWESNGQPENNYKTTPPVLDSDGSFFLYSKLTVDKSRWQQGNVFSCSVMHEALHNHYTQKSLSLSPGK
# Description: (§1) Surface plasmon resonance (SPR) was used to measure binding kinetics and affinity of the representative lipocalin muteins disclosed herein.
# (§2) The binding of exemplary lipocalin muteins to human (Creative Biomart), cynomolgus, rat (R&D Systems) and mouse CTGF (Abbexa) was determined by SPR using a Biacore instrument (Cytiva, formerly GE Healthcare). Some targets were fused to a human IgG1 Fc tag, and captured via the anti-human IgG antibody kit, others were directly immobilized.
# (§3) For some measurements, human CTGF with a human IgG1 Fc Tag or rat or murine CTGF without a tag were directly immobilized to a CM5 Chip. The carboxyl groups on the chip were activated using 1-ethyl-3-(3-dimethylaminopropyl)-carbodiimide (EDC) and N-hydroxysuccinimide (NHS). Subsequently, the targets at a concentration of 3-5 μg/mL in 10 mM sodium acetate (pH) 4.5 were applied at a flow rate of 10 μL/min until an immobilization level of 300-1100 resonance units was achieved. Residual non-reacted NHS-esters were blocked by passing a solution of 1 M ethanolamine across the surface. The reference channel was activated/deactivated. For the capture setting, targets with an IgG Fc Tag at 0.25-2.5 μg/mL in HBS-EP+ buffer were captured by the anti-human IgG-Fc antibody at the chip surface for 180 s at a flow rate of 10 μL/min.
# (§4) The binding assay was carried out with a contact time of 180 s, a dissociation time of 900-3600 s and a flow rate of 30 μL/min. All measurements were performed at 25° C. […] For the directly immobilized targets, the same regeneration conditions were used. Prior to the protein measurements, three startup cycles were performed for conditioning purposes. Data were evaluated with Biacore Evaluation software. Double referencing was used and the 1:1 binding model was used to fit the raw data.
# human CTGF [3] = molecular target: T4, human CTGF (Homo sapiens, UniProt P29279, H83D); assay: SPR binding kinetics and affinity, human CTGF; conditions: 25° C., 1:1 binding model
# T4 construct: purchased Creative Biomart
# T4 sequence (P29279 with tags, fused parts or gaps H83D): as above
# Description: as §1, §2, §3, §4
# Murine CTGF = molecular target: T1, Murine CTGF; assay: SPR binding kinetics and affinity, murine CTGF; parameters: key to Murine CTGF kon / Murine CTGF koff / Murine CTGF KD: B binding without determination of kinetics constants; conditions: 25° C., 1:1 binding model
# Description: as §1, §2, §3, §4
# (§5) The values determined for kon, koff and the resulting equilibrium dissociation constant (KD) for exemplary lipocalin muteins are summarized in Table 4.
# Rat CTGF = molecular target: T2, Rat CTGF; assay: SPR binding kinetics and affinity, rat CTGF; parameters: key to Rat CTGF kon / Rat CTGF koff / Rat CTGF KD: B binding without determination of kinetics constants; conditions: 25° C., 1:1 binding model
# Description: as §1, §2, §3, §4, §5
# cynomolgus CTGF = assay: SPR binding kinetics and affinity, cynomolgus CTGF; conditions: 25° C., 1:1 binding model
# Chain of cynomolgus CTGF (as listed by the source): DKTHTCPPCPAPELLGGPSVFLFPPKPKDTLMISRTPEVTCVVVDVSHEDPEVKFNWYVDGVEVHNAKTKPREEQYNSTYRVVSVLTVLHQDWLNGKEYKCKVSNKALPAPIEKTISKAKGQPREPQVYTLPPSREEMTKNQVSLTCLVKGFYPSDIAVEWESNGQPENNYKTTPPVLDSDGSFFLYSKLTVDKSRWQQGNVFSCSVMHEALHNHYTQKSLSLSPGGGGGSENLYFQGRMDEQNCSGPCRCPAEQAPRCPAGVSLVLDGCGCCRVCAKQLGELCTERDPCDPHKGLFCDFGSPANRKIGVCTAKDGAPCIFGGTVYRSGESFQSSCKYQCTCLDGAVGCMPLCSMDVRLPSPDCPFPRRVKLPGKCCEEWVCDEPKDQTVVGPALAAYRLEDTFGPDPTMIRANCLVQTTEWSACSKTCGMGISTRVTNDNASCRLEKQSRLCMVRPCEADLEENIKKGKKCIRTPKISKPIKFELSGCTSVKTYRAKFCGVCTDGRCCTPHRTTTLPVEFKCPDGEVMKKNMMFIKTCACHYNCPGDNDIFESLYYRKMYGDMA
# Description: as §1, §2, §3, §4, §5
Molecule,ONSET MELTING [1],TM [1],human CTGF koff (human CTGF [2]),human CTGF kon (human CTGF [3]),Murine CTGF KD (Murine CTGF),Murine CTGF koff (Murine CTGF),Murine CTGF kon (Murine CTGF),Rat CTGF koff (Rat CTGF),Rat CTGF kon (Rat CTGF),Rat CTGF KD (Rat CTGF),cynomolgus CTGF koff (cynomolgus CTGF),cynomolgus CTGF kon (cynomolgus CTGF)
"SEQ ID NO: 5: optimized CTGF-binding hNGAL lipocalin mutein (protein, lipocalin mutein) QDSTSDLIPAPPLSKVPLQQNFQDNQFQGKWYVVGKAGNALREDKEPPKMWATIYELKEDKSYDVTHVHFLTKKCKYLIDTFVPGSQPGEFTIGAIKSGPGLTSPLVRVVSTNYNQHAMVFFKWVSQNREWFTITLYGRTKELTSELKENFIRFSKSLGLPENHIVFPVPIDQCIDG",52 °C,66 °C,6.65e-05 s⁻¹,211000 M⁻¹ s⁻¹,B,B,B,0.000362 s⁻¹,294000 M⁻¹ s⁻¹,,,
"SEQ ID NO: 33: optimized CTGF-binding hNGAL lipocalin mutein (protein, lipocalin mutein) QDSTSDLIPAPPLSKVPLQQNFQDNQFQGKWYVVGWAGNAKLREDKQPFKMSATIYELKEDKSYDVTEVVFEQKKCHYIIKTFVPGSQPGEFTEGNYKRRPRLWSDLVRVVSTNYNQHAMVFFKKVHQNREFFWITLYGRTKELTSELKENFIRFSKSLGLPENHIVFPVPIDQCIDG",56 °C,72 °C,1.71e-05 s⁻¹,172000 M⁻¹ s⁻¹,,5.29e-05 s⁻¹,176000 M⁻¹ s⁻¹,6.3e-05 s⁻¹,279000 M⁻¹ s⁻¹,,,
"SEQ ID NO: 22: optimized CTGF-binding hNGAL lipocalin mutein (protein, lipocalin mutein) QDSTSDLIPAPPLSKVPLQQNFQDNQFQGKWYVVGIAGNAILRVDKQPAKMFATIYELKEDKSYDVTSVRFEAKSCVYTIKTFVPGSQPGEFTAGNIKSAPGQTSTLVRVVSTNYNQHAMVFFKHVSQNREIFVITLYGRTKELTSELKENFIRFSKSLGLPENHIVFPVPIDQCIDG",59 °C,73 °C,8.05e-06 s⁻¹,142000 M⁻¹ s⁻¹,B,B,B,4.01e-05 s⁻¹,181000 M⁻¹ s⁻¹,,,
"SEQ ID NO: 6: optimized CTGF-binding hNGAL lipocalin mutein (protein, lipocalin mutein) QDSTSDLIPAPPLSKVPLQQNFQDNQFQGKWYVVGRAGNNQLREDKSPPKMWATIYELKEDKSYDVTHVHFSTKKCRYIIDTFVPGSQPGEFTAGAIKSGPGLTSPLVRVVSTNYNQHAMVFFKWVTQNREWFTITLYGRTKELTSELKENFIRFSKSLGLPENHIVFPVPIDQCIDG",48 °C,66 °C,0.000149 s⁻¹,290000 M⁻¹ s⁻¹,B,B,B,B,B,B,,
"SEQ ID NO: 34: optimized CTGF-binding hNGAL lipocalin mutein (protein, lipocalin mutein) QDSTSDLIPAPPLSKVPLQQNFQDNQFQGKWYVVGWAGNVILREDKQPFKMSATIYELKEDKSYDVTEVVFEQKKCHYIIKTFVPGSQPGEFTLGDIKSPPGETSTLVRVVSTNYNQHAMVFFKKVSQNREFFWITLYGRTKELTSELKENFIRFSKSLGLPENHIVFPVPIDQCIDG",67 °C,82 °C,0.000169 s⁻¹,150000 M⁻¹ s⁻¹,,0.00286 s⁻¹,240000 M⁻¹ s⁻¹,,,,0.000238 s⁻¹,139000 M⁻¹ s⁻¹
"SEQ ID NO: 35: optimized CTGF-binding hNGAL lipocalin mutein (protein, lipocalin mutein) QDSTSDLIPAPPLSKVPLQQNFQDNQFQGKWYVVGWAGNVKLREDKQPLKMSATIYELKEDKSYDVTEVVFEQKKCHYIIKTFVPGSQPGEFTAGDIKSPPGYTSSLVRVVSTNYNQHAMVFFKKVSQNREFFWITLYGRTKELTSELKENFIRFSKSLGLPENHIVFPVPIDQCIDG",63 °C,78 °C,5.94e-05 s⁻¹,108000 M⁻¹ s⁻¹,,0.000287 s⁻¹,128000 M⁻¹ s⁻¹,0.000273 s⁻¹,193000 M⁻¹ s⁻¹,,,
"SEQ ID NO: 36: optimized CTGF-binding hNGAL lipocalin mutein (protein, lipocalin mutein) QDSTSDLIPAPPLSKVPLQQNFQDNQFQGKWYVVGWAGNVKLREDKQPAKMSATIYELKEDKSYDVTEVVFEQKKCHYIIKTFVPGSQPGEFTAGDIKSPPGYTSSLVRVVSTNYNQHAMVFFKKVGQNREFFWITLYGRTKELTSELKENFIRFSKSLGLPENHIVFPVPIDQCIDG",58 °C,73 °C,6.95e-05 s⁻¹,165000 M⁻¹ s⁻¹,,0.00052 s⁻¹,310000 M⁻¹ s⁻¹,,,,9.77e-05 s⁻¹,141000 M⁻¹ s⁻¹

# Source: US20240228562A1, “NOVEL LIPOCALIN MUTEINS SPECIFIC FOR CONNECTIVE TISSUE GROWTH FACTOR (CTGF)” (PIERIS PHARMACEUTICALS GMBH, priority 2021, published 2024)
